Assay: label from the status in PepcDB records
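Further: failed if final PepcDB status was selected cloned or expressed and not failed if soluble or beyond.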

Sequence | protein production
MQMLSRIHRETCSQDVNECGMKPRPCQHRCVNTHGSYKCFCLSGHMLMPDATCVNSRTCAMINCQYSCEDTEEGPQCLCPSSGLRLAPNGRDCLDIDECASGKVICPYNRRCVNTFGSYYCKCHIGFELQYISGRYDCIDINECTMDSHTCSHHANCFNTQGSFKCKCKQGYKGNGLRCSAIPENSVKEVLRAPGTIKDRIKKLLAHKNSMKKKAKIKNVTPEPTRTPTPKVNLQPFNYEEIVSRGGNSHGGKKGNEEKMKEGLEDEKREEKALKNDIEERSLRGDVFFPKVNEAGEFGLILVQRKALTSKLEHKDLNISVDCSFNHGICDWKQDREDDFDWNPADRDNAIGFYMAVPALAGHKKDIGRLKLLLPDLQPQSNFCLLFDYRLAGDKVGKLRVFVKNSNNALAWEKTTSEDEKWKTGKIQLYQGTDATKSIIFEAERGKGKTGEIAVDGVLLVSGLCPDSLLSVDD | failed
MQMMSELFASGTVVDAVLIFLLVEAIGVIGYWLWRKHGIAPADFLPGMISGALMLLALRAVLAGAGWMVPTLCLLAAGGAHLVDVLRRWR | failed
MQMNSEKFFKLFRVGETVLVEYSGTSRAELLLYYIVNNSKLPIVVDDILDTYYEFYTRLKVAGFDVAPLENVQVIKMGGTKDIGRVIGRLNISKYVISEQEYMEIVSQLKDYPVINPVLGLHKLILLGNTFENINVVKMVSNYVGREERIAFYFVNRNVIEKHSSPILDLLEEVVTSILEITDSGIIIKKSIKDEIAGKIVSPLLNF | not failed
MQNKARKNYIIYVLMLLLFGGLIYVAIEEGDRFSHHAANTLNTVQDGPFAMFLQFMQDNLHHPLTTLLIQIIAVLLMVRLFGYLFSLIGQPGVIGEIVAGIVLGPSVLGLFFPEAFHFLFPVHSLTNLELLSQVGLILFMFVIGMELDFSVLKNKINETLVISHAGILVPFFLGILSSYWIYETYAADHTPFLPFALFIGISMSITAFPVLARIIQERNMTKTPLGTLAIASAANDDVTAWCLLAVVIAISKAGSFASALYSVGLAVAYIAVMFLVVRPFLKKVGEVYANKEAINKTFVAFILLILIISSCLTEIIGIHALFGAFMAGVVMPSNLGFRKVMMEKVEDISLVFFLPLFFAFTGLRTEIGLINSPELWMVCLLLVTVAIVGKLGGCAIAARLVGESWKDSLTVGTLMNTRGLMELVALNIGYEMGVLPPSIFVILVIMALVTTFMTTPLLHLVERFFVHREEKLSLKRKLIFCFGRPESGRSLLSIYDLLFGKQLKKEHVIAAHYTVGTDLNPLDAQHYESESFALLNQRAVELNIQVDNHYRVTDKLVQEMIHFIRKEHPDMLLLGAGSHYRPEMPGTPGAILWLTLFRDKIDDIMEQVKCPVAVFVNRNYREGALVSFVLGGMIDVFLLSYLNIMLQNGHSVRLFLFETDDEEFHQCIDDLLAHYADQIVVVWFAGVEELVTKERDGLLVMSHLSYTKLSEDELVMRELSSLLVIRRNKNKGEKNERLEIG | failed
MQNMKNQVRGSGMDARSNPANVSDGLQNSSGHIGTNTRYRLTKLGEQMARLPIDPKIARILLAAKKHDCMAEILVIASALSIQDPRERPLEARDAAAKAHERFTDKQSDFLTYLNIWDSFQRERDKGLSNKQLVQWCRQYFLSHLRMREWRELHHQLAQTAIEMGLTTKEAAFRRPPEVKQLTSSENAGDQDLSAKLKQKQLDKKQHRTQIRATKEAGYEQIHRALLTGLIANVGMKSPDSNDYTGARGSRFHLFPASALFKAKPKWVMAAELVETTRLYARDVAVIQPEWIEQEAPHLVRYHYFEPHWEQKRGEVVASERVTFYGLTVLPRRPVSYGKVAPEEAREIFIRSALVAQEYDLKADFFVHNKKLIKEITELEHKSRKQDVLVDDEALFAFYHERLPDFYMADSVSEGLCPANPQQTTPSPVGKGWGEGKTVAAQTNFSATAANPLPNPLPQEREQSASVSTVSGSLKTMSCEARLNFCEAKTKTESSLHSQRLSENYTPPFSDGLRPANPQQTTPSPVGEGWGEGKTVAAQTNFSATAANPLPQEREQSASALTVSDDPKPKKQPASQKGRLKPLPLADIRTFEAWLKTAERDNPRLLFLSRDDLMQHAAAHITEEQFPKHWQTADGKFKLSYRFEPHHPLDGVTLTLPLTVLNRISPAALEWLVPGMIREKIQLQIKALPKQIRRICVPVPEFITQFLSQNPDRNAPILPQLAQAIAKTAGDIRILEQINQDEWAAFRLPEHCYFNLRIIDDGEQELAMGRDLIQIQQQLGKAATTTFRDNTQEFERDNVTAWDIGILPESIKFARGKQQLTGYLGLQKEKDGRIALRLFDTSAAAGHAHRLGVIELMKLQLKEQVKDLNKGIQGFTQAAMLLKHINADTLRDDLTQAVCDRAFIGEDKLPRNEKAFKEQIKRARSRLPAVKEALSRYLQETAAAYAELNGKLGKHPLTHLLRLRLQTLLAPGFATRTPWAQWPRLPIYLKAMTLRLEKYSSNPARDAAREADIQELEQMWQEKTDGLAKQGQPVSDGLAAFKWMIEELRVSLFAQELKTPYPVSVKRLLKMWEILL | failed
MQNPAGNPYNLDSFWFEQLMSHPSLNHAKMATRIQDETLEREVADLVISTLNLDVSPESVDPEAPLYREGLGLDSIDILEIALVVSKRYGFQLRADNEDNVRIFGSLRSLCQHIAANRVECLEHHHHHH | not failed
MQNPIDSLLYVKISAEQAGKIFENLESSIPLPIQLSEPGQKEDFKAENIKPEMILAGMLTVFAYDRENPHITYYRKIFNLLRPDIRKEMTEAAIIKIKNNDFDMAEEILLSLEGLNPDDGITKLNLALLMEERSQFCEMRELFEDALSFNKRAEELYSELILFEPPLPGVFFNAAYFFIKQKNYIKAKSLLKTYLEIENDSSETAEFRKAKASELLKTISEQALDDELFQKAYKCIDLGEEEKAAESIKLFLRKNPKVWNAWFLLGWALRRMGRWEDARSSFLKTIELLENSEISDKEPLCDVYNELAICLMELELFDEAEKHLINALSLDSENIKIISNLGTLALKQGKQEEAEAFFRTVLEINPDDKIALNVLGKPRA | failed
MQPETSAQYQHRFSQAIRGGEAADGLPQDRLNVYIRLIRNNIHSFIDRCYTETRQYFDSKEWSRLKEGFVRDARAQTPYFQEIPGEFLQYCQSLPLSDGILALMDFEYTQLLAEVAQIPDIPDIHYSNDSKYTPSPAAFIRQYRYDVTHDLQEAETALLIWRNAEDDVMYQTLDGFDMMLLEIMGSSALSFDTLAQTLVEFMPKADNWKNILLGKWSGWIEQRIIIPSLSAISENMEGNSPSQNHLSA | not failed
MQPFRVTLVEDEPSHATLIQYHLNQLGAEVTVHPSGSAFFQHRSQLSTCDLLIVSDQLVDLSIFSLLDIVKEQTKQPSVLILTTGRHELIESSEHNLSYLQKPFAISELRAAIDYHKPSMGVTMNV | not failed
MQPGRSKAIPSRNASDKAYEPAVLLMRARVLHQQGQLDEARSAYKKVLKKAPDNFMALHFYALAEYQSGNAELGIKTLKRALLADPKSAQAQSDMGSMLIAVGRFADSLASCDKAIAIDPTLMLAYANRGLALSALARYEDAIASFDKAIELMPDRADTWNDRGNALHKLGRYTEALESYDKAIEIDPLSDVAFMNRAGTYKDLKQLDKALASYDRALSIGKRPVQAGLARAETLLFMRNVKDAMATCTAVLKVEPNSAIALTLLGNCMASLGDAETAIALHSRALELMPNYEAAISSKIFSMDFCAGSDVEAQQAVRSSWWTQIGAPIYRACATPPTNDRDPDRRLVVGYVSADFRAHSAAFSFRPVIEHHDHNQFEVVLYSGVVVPDDSTRAFEAIADKWRDATLMSDQGLADQIKEDKVDILVDLSGHSNGNRLRVFARKPAPVQVTAWGHATGTGLPVMDYLLGDPVAIPVEDRHFYAEAVYDLPSIVIIEPVPQQWRSLELPFDRNGYLTYGSLNRISKISDAAIEVWSQVLAASPTSRLILKDHQIDDPAVRQTLLEKFGARGIAAGRITLLGSSSRQDHLETLKQIDLCLDPFPQAGGVSTWEALHMGVPVVSRLGHTVPSRVGCAVLAAAGLPDFIAPNDARYIEIASKPELERLRSIRRGLRDFILQRCGPAAYTRAVEDAYRTMWKRWCAAPFDEAKDRALRRGR | failed
MQPGWMSSRFYQTCDWIWKLAYINLLWLSGTLLGLVVLGFLPATTAMFTVLRKWFTGNPDVAITRTFFQAYKNEFLKINLLGAVLLLGAYILYFNYMYLGTVEGTVHMVLSLGWYAFLILYIITLFYIIPAYVHYNLKLFQYIKTALIIGFVNPLALVTLAISIGLLGYLLYLVPGLIPFFGPSTFALIVMWCANMSFNRVEKKKEKLELAGQN | failed
MQQFATLSLASLLMLGTFTAFAAENGDAPASGWHIDDSATKGASGQQGMFDGVRLTEQQRQQMRDLMHQSRQDKPAFNTEDVKAMHKLVTAETFDEAAVRAQITRMMSVQIERQIQMTRVRNQMYNLLTPAQKEILELKHKQRMKEMQQQISMFNQMVAPSSGTTNHTETDSPELEHHHHHH | not failed
MQQLSFLPGEMTPGERSLILRALQTLDRHXHEPGVAFTSTRAAREWLILNMAGLEREEFRVLYLNNQNQLIAGETXFTGTINRTEVHPREVIKRALYHNAAAVVLAHNHPSGEVTPSKADRLITERLVQALGLVDIRVPDHLIVGGNQVFSFAEHGLL | failed
MQQRRPVRRALLSVSDKAGIVEFAQALSARGVELLSTGGTARLLAEKGLPVTEVSDYTGFPEMMDGRVKTLHPKVHGGILGRRGQDDAIMEEHQIQPIDMVVVNLYPFAQTVAREGCSLEDAVENIDIGGPTMVRSAAKNHKDVAIVVKSSDYDAIIKEMDDNEGSLTLATRFDLAIKAFEHTAAYDSMIANYFGSMVPAYHGESKEAAGRFPRTLNLNFIKKLDMRYGENSHQQAAFYIEENVKEASVATATQVQGKALSYNNIADTDAALECVKEFAEPACVIVKHANPCGVAIGNSILDAYDRAYKTDPTSAFGGIIAFNRELDAETAQAIISRQFVEVIIAPSASEEALKITAAKQNVRVLTCGQWGERVPGLDFKRVNGGLLVQDRDLGMVGAEELRVVTKRQPSEQELRDALFCWKVAKFVKSNAIVYAKNNMTIGIGAGQMSRVYSAKIAGIKAADEGLEVKGSSMASDAFFPFRDGIDAAAAAGVTCVIQPGGSIRDDEVIAAADEHGIAMLFTDMRHFRH | not failed
MQQVFNVSVPVPDDVVIISKEEYLNLLSDNEQGKWWDIDNLQELLGIGRSKLINDILLNPDIKKEVDLSINPNGFIVYPKGKGSRYKILATKARKYFEDNFGSILLNS | failed
MQREKTQTNLRLDEGGGSVWQKCSRHEGRFVCVAGVCPYCLHERLSSLCPDCAHDLPCSCTPRASVSSRGEGDVSFARIGSVGRVANLIECEPAFRRSTSITGPYFWSAKPEPILETEKDLKPGRGRWLWRLFRGNREEETKIKAAKVMKKSNSVAGEVLFSPTPVTSKGNGWYFPSPIKVFRQSRVSKMIFQQRSPLYRG | failed
MQRGDISMTKRKDIHFRIEEKLLERFESALHYEGLKKTDVLTHAIQQFCMKVEYEKMNDVKRQYSVSNNLQTRIDTHKHYEEKQVNLDEIVIEHLQLQGRERILEVGCANGKFLSLLQANGHKGQLTGFDQSEAMLSEATKTNNLIEWRLGDAGKLPFEANYYDLIVARHMLYHMKDVEKTIQGFHKVIHPGGSLLATTNSNVTLPRIVEMCNRMLDTFDLPKTTSSVTPFCLENGKEILQSVFPTVEVSVIHNALVFHHATPIVNYISSMFPSLNIPDNTLLHAEMKDWLKEEVENELLLHNGIWRDPKTLAIYRCQKEKS | failed
MQRKGDTPATLDLFADQTPQPRRDEQIGPGSWLFSGFALPAMPTLLLALEQTLGHSPFRHMLTPGGLSMSAALSSCGPLGWITDRHGYRYSDVDPQTGQPWPAMPDAFMQLAQSAALAAGYRGFVPDACLINRYIPGAKMSLHQDKDEHDHRWPVVSVSLGIPAIFQFGGMQRSDKTRRISLFHGDVVVWGGEDRLRFHGILPIKQAEHPLLGEQRINLTFRKAGRDSLEHHHHHH | not failed

Source: a protein production outcome set (Wang et al. 2014)
